B1: RPAP2_32–274 (Homo sapiens) (protein)
chain: LKQEDASKRKAELEAAVRKKIEFERKALHIVEQLLEENITEEFLMECGRFITPAHYSDVVDERSIVKLCGYPLCQKKLGIVPKQKYKISTKTNKVYDITERKSFCSNFCYQASKFFEAQIPKTPVWVREEERHPDFQLLKEEQSGHSGEEVQLCSKAIKTSDIDNPSHFEKQYESSSSSTHSDSSSDNEQDFVSSILPGNRPNSTNIRPQLHQKSIMKKKAGHKANSKHKDKEQTVVDVTEQL
B2: RPAP2_32–345 (Homo sapiens) (protein)
chain: LKQEDASKRKAELEAAVRKKIEFERKALHIVEQLLEENITEEFLMECGRFITPAHYSDVVDERSIVKLCGYPLCQKKLGIVPKQKYKISTKTNKVYDITERKSFCSNFCYQASKFFEAQIPKTPVWVREEERHPDFQLLKEEQSGHSGEEVQLCSKAIKTSDIDNPSHFEKQYESSSSSTHSDSSSDNEQDFVSSILPGNRPNSTNIRPQLHQKSIMKKKAGHKANSKHKDKEQTVVDVTEQLGDCKLDSQEKDATCELPLQKVNTQSSSNSTLPERLKASENSESEYSRSEITLVGISKKSAEHFKRKFAKSN

Substrate: Cc1cc(=O)oc2c(F)c(OP(=O)(O)O)c(F)cc12
Test: DiFMUP fluorescence phosphatase assay, Michaelis-Menten fit
Assay type: biochemical, Homo sapiens
Conditions: 20 mM tris-acetate pH 6.0, 150 mM NaCl, BSA 0.1 mg/ml

Row | Protein | Km [µM] | kcat/Km [M⁻¹ s⁻¹]
1 | B1 | 30.95 ± 1.75 | 833000
2 | B2 | 34.20 ± 0.84 | 333000

From publication PMC4801511
